Molecular target: NUP93 (nucleoporin 93) (UniProt Q8N1F7)
Assay: co-immunoprecipitation, Western blot
Details: reference: wild-type β-catenin; sites S191

β‐catenin (from UniProt P35222) β-catenin S191 mutant (S191A)
binding against the reference: weaker

Source: article PMC12362812
